# In patent US20240254246A1 (PROMETHEUS BIOSCIENCES, published 2024):
# Substitutions are numbered along the chain they refer to. Like-named read-outs stand apart in the source and are kept apart here.
# T1: human CD30L expressed on B16 cells (human, UniProt P32971 1-234)
# T1 sequence (looked up): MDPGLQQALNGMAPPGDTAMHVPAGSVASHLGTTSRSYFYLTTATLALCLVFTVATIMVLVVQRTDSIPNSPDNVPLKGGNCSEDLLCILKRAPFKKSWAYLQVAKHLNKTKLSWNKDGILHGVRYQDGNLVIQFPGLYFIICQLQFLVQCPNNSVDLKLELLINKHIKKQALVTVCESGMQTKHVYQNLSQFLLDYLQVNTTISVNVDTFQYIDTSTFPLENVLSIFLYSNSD
# T2: cynomolgus CD30L expressed on HEK293 cells (cynomolgus, UniProt A0A7N9CVX7 1-234)
# T2 sequence: T1 sequence (looked up) with A19T, M20T, G32E, L41F, V75I, K78R, I204V, I227V
# T3: human CD30L expressed on cells (human, UniProt P32971 1-234)
# T3 sequence (looked up): T1 sequence (looked up)
# T4: cynomolgus CD30L expressed on HEK293 cells (cynomolgus, UniProt A0A7N9CVX7 1-234)
# T4 sequence: T1 sequence (looked up) with A19T, M20T, G32E, L41F, V75I, K78R, I204V, I227V
# T5: recombinant human CD30L protein (human, UniProt P32971 63-234)
# T5 construct: also called rhCD30L; huCD30L (ELISA)
# T5 sequence (looked up): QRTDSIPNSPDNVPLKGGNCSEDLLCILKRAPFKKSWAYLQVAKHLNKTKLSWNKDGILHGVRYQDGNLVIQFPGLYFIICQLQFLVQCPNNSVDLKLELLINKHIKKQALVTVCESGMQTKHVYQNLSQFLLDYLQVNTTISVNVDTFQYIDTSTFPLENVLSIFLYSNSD
# T6: cynomolgus CD30L expressed on cells (cynomolgus, UniProt A0A7N9CVX7 1-234)
# T6 construct: whole, on cells; also called cyCD30L; HEK293-cyCD30L
# T6 sequence: T1 sequence (looked up) with A19T, M20T, G32E, L41F, V75I, K78R, I204V, I227V
# T7: human CD30L expressed on cells (human, UniProt P32971 1-234)
# T7 construct: also called huCD30L; B16-huCD30L
# T7 sequence: T1 sequence (looked up)
# T8: recombinant cynomolgus CD30L protein (cynomolgus, UniProt A0A7N9CVX7 63-234)
# T8 construct: Recombinant protein used in ELISA; also called cyCD30L
# T8 sequence: T5 sequence (looked up) with V13I, K16R, I142V, I165V
# T9: recombinant human CD30L protein (human, UniProt P32971 63-234)
# T9 construct: Recombinant protein used in ELISA; also called huCD30L
# T9 sequence (looked up): T5 sequence (looked up)
# B1: anti-CD30L Reference 1 antibody (antibody, human IgG1, lambda, V domains shown)
# VH: QVQLQESGPGLVKPSETLSLTCTVSGGSISSYIWSWIRQPAGKGLEWIGRIYASGNTNYNPSLKSRVTISVDTSKNQFSLKLSSMTAADTAVYYCARDYRVAGTYYYYYGLDVWGQGTTVTVSS
# VL: QSALTQPASVSGSPGQSITISCTGTSSDVGVYDYVSWYQQHPGKAPKLMIYEVSNRPSGVSNRFSGSKSGNTASLTISGLQTEDEADYYCSSYTSRSTWVFGGGTKLTVLG
# B2: Clone 1, Mouse IgG (antibody, V domains shown)
# VH: QVQLQESGPGLVKPSETLSLTCTVSGGSISGYYWSWIRQPPVKGLEWIGYIFYSGYTKYNPSLKSRVTISVDTSKNQFSLKLSSVTAADTAVYYCARDRWDFDYWGQGALVTVSS
# VL: AIQMTQSPSYLSASVGDRVTIACRASQGIRNNLGWYQQKPGKAPKLLIYAESSLQSGVPSRFSGSGSGTDFTLTISSLQPEDFATYYCLQDFNYPYTFGQGTKLEIK
# notes: Mouse IgG format
# B3: Clone 1, Human IgG1 (antibody, V domains shown)
# VH: B2 VH
# VL: B2 VL
# notes: Human IgG1 format
# B4: Clone 2, Mouse IgG (antibody, V domains shown)
# VH: EVQLVESGGGLVQPGRSLRLSCAASGFNFDDYAMHWVRQAPGKGLEWVSGISWRSGNIGYAGSVKGRFTISRDNAKNSLYLQMNSLRPEDSALYYCAKDKGIGFNWNYEGFDYWGQGTLVTVSS
# VL: DIQMTQSPSSLSASVGDRVTITCRASQGISNHLAWFQQKPGKAPKSLIYAASSLQSGVPSKFSGSGSGTDFTLTISSLQPEDFATYYCQQYVTYPLTFGGGTKVEIK
# notes: Mouse IgG format
# B5: Clone 2, Human IgG1 (antibody, V domains shown)
# VH: B4 VH
# VL: B4 VL
# notes: Human IgG1 format
# B6: anti-CD30L clone 1 (antibody, V domains shown)
# VH: B2 VH
# VL: B2 VL
# notes: From mice with humanized immunoglobulin locus; elsewhere tested as mouse IgG and human IgG1; also called clone 1 parental
# B7: anti-CD30L clone 2 (antibody, V domains shown)
# VH: B4 VH
# VL: B4 VL
# notes: From mice with humanized immunoglobulin locus; elsewhere tested as mouse IgG and human IgG1; also called clone 2 parental
# B8: anti-CD30L clone 3 (antibody, V domains shown)
# VH: B2 VH
# VL: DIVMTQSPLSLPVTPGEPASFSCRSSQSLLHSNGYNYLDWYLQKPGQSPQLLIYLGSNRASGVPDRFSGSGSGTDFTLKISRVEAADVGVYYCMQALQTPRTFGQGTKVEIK
# B9: anti-CD30L clone 4 (antibody, V domains shown)
# VH: QVQLVESGGGVVQPGRSLRLSCAASGFPFSSYGMHWVRQAPGKGLEWVTFIWFDGNNKDYADSVKGRFSVSRDNSKNTLYLQMNSLRADDTAVYYCARNGVYYGSGAYVDYWGQGTLVTVSS
# VL: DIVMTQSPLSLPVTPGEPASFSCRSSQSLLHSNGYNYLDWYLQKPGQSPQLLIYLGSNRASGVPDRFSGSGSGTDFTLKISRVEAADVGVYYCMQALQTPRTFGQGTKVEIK
# B10: Clone 3 (antibody, V domains shown)
# VH: B2 VH
# VL: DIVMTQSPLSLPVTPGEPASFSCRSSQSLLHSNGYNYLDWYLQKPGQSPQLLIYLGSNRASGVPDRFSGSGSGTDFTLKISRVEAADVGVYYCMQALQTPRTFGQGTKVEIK
# notes: Hybridoma screening sample; also called CLONE_3 (parental)
# B11: Clone 4 (antibody, V domains shown)
# VH: B9 VH
# VL: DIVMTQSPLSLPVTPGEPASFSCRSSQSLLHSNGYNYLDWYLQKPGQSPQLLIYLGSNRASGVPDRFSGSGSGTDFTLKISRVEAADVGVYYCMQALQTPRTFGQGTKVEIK
# notes: Hybridoma screening sample; also called CLONE_4 (parental)
# Legend:
# [1] = target: T1, human CD30L expressed on B16 cells; assay: cell-based or functional assay
# [2] = target: T2, cynomolgus CD30L expressed on HEK293 …; assay: cell-based or functional assay
# [3] = target: T1, human CD30L expressed on B16 cells; assay: flow cytometry, binding to B16-rhCD30L cells
# [4] = target: T2, cynomolgus CD30L expressed on HEK293 …; assay: flow cytometry, binding to HEK293-cyCD30L cells
# [5] = target: T1, human CD30L expressed on B16 cells; assay: flow cytometry, blocking of CD30-Fc on B16-huCD30L cells; competitor CD30-Fc
# [6] = target: T2, cynomolgus CD30L expressed on HEK293 …; assay: flow cytometry, blocking of CD30-Fc on HEK293-cyCD30L cells; competitor CD30-Fc
# [7] = target: T3, human CD30L expressed on cells; assay: cell-based or functional assay
# [8] = target: T4, cynomolgus CD30L expressed on HEK293 …; assay: cell-based or functional assay; remark: listed apart in the source
# [9] = target: T3, human CD30L expressed on cells; assay: flow cytometry, B16-huCD30L cells
# Method: Anti-CD30L antibody binding to a CD30L target was determined by flow cytometry, using B16 cells transfected to express human CD30L (compared to non-transfected B16), and using HEK293 cells transfected to express cynomolgus CD30L (compared to non-transfected HEK293). […] Cell surface bound antibodies were detected using a fluorescently labeled anti-human-IgG or anti-mouse IgG, depending on the Fc portion of the antibodies. After incubation with the secondary antibody, the cells were washed, fixed in a paraformaldehyde solution, and analyzed by flow cytometry to detect antibody binding.
# [10] = target: T3, human CD30L expressed on cells; assay: flow cytometry, blocking of huCD30 binding to B16-huCD30L cells
# [11] = target: T5, recombinant human CD30L protein; assay: ELISA, huCD30L, 1/50 dil
# [12] = target: T5, recombinant human CD30L protein; assay: ELISA, huCD30L, 1/500 dil
# [13] = target: T5, recombinant human CD30L protein; assay: ELISA, huCD30L, 1/5000 dil
# [14] = target: T6, cynomolgus CD30L expressed on cells; assay: flow cytometry, cyCD30L cells, 1/50 dil
# [15] = target: T7, human CD30L expressed on cells; assay: flow cytometry, huCD30L cells, 1/50 dil
# [16] = target: T8, recombinant cynomolgus CD30L protein; assay: ELISA, 1/50 dil
# [17] = target: T8, recombinant cynomolgus CD30L protein; assay: ELISA, 1/500 dil
# [18] = target: T8, recombinant cynomolgus CD30L protein; assay: ELISA, 1/5000 dil
# [19] = target: T9, recombinant human CD30L protein; assay: ELISA, CD30 competitor, undil
# [20] = target: T9, recombinant human CD30L protein; assay: ELISA, CD30 competitor, 1/10 dil
# [21] = target: T9, recombinant human CD30L protein; assay: ELISA, CD30 competitor, 1/100 dil
# [22] = target: T9, recombinant human CD30L protein; assay: ELISA, CD30 competitor, 1/1000 dil
Binder,Inhibition of IL-8 release in a dual cell assay (B16-huCD30L cells + K299 cells) IC50 [7] [nM],Inhibition of IL-8 release in a dual cell assay (HEK293-cyCD30L cells + K299 cells) IC50 [8] [nM],EC50 [9] [nM],IC50 [10] [nM],OD [11] [OD],OD [12] [OD],OD [13] [OD],MFI [14] [MFI],MFI [15] [MFI],also measured
B1,–,–,–,–,–,–,–,–,–,Inhibition of IL-8 release in a dual cell assay (B16-huCD30L cells + K299 cells) IC50 [1]: 1.61 nM; Inhibition of IL-8 release in a dual cell assay (HEK293-cyCD30L cells + K299 cells) IC50 [2]: 0.79 nM; EC50 [3]: 1.12 nM; EC50 [4]: 0.56 nM; IC50 [5]: 1.84 nM; IC50 [6]: 0.73 nM
B2,1.99,0.55,1.95,3.06,–,–,–,–,–,–
B3,1.1,0.22,1.41,1.35,–,–,–,–,–,–
B4,1.2,0.46,1.21,1.84,–,–,–,–,–,–
B5,0.6,0.24,0.81,0.86,–,–,–,–,–,–
B6,–,–,–,–,3.59,3.02,1.28,77.3,208,–
B7,–,–,–,–,2.15,1.71,0.565,57.6,280,–
B8,–,–,–,–,3.5,2.54,0.662,72.4,153,–
B9,–,–,–,–,3.08,2.65,0.68,67.8,151,–
B10,–,–,–,–,–,–,–,–,–,Elisa Binding (OD) [16]: 3.2 OD; Elisa Binding (OD) [17]: 2.35 OD; Elisa Binding (OD) [18]: 0.552 OD; % inhibition [19]: 98%; % inhibition [20]: 95%; % inhibition [21]: 17%; % inhibition [22]: 3%
B11,–,–,–,–,–,–,–,–,–,Elisa Binding (OD) [16]: 2.58 OD; Elisa Binding (OD) [17]: 2.38 OD; Elisa Binding (OD) [18]: 0.583 OD; % inhibition [19]: 98%; % inhibition [20]: 96%; % inhibition [21]: 10%; % inhibition [22]: 0%
